Assay results as given in patent publication EP4729546A1 (Jiangsu BioJeTay Biotechnology Co., Ltd., dated 2026).
Read-outs that look alike come from different tables or passages of the source.

Tests used:
huFXII-his (human) [1] = target: huFXII-his (human) (UniProt P00748); test: cell-based or functional assay
huFXII-his (human) [2] = target: huFXII-his (human) (UniProt P00748); test: ELISA, huFXII-his coated at 1 µg/ml, HRP anti-human secondary, OD450
[3] = target: FXIIa (purchased from Enzyme Research Lab) (UniProt P00748); test: cell-based or functional assay
huFXII-his (human) [4] = target: huFXII-his (human) (UniProt P00748); test: cell-based or functional assay; remark: listed apart in the source

Substance: CSL312 (antibody)
- IC50 of inhibition of cleavage of chemical substrate S2302 by FXIIa (OD405) (huFXII-his (human) [1]): 0.0258 µg/mL
- EC50 (huFXII-his (human) [2]): 0.421 µg/mL
- IC50 of inhibition of the cleavage of PK proenzyme (prekallikrein) by FXIIa, read with pKa substrate CS-3102 (OD405) [3]: 0.11 µM
- IC50 of inhibition of cleavage of chemical substrate S2302 by FXIIa (OD405) (huFXII-his (human) [4]): 0.0232 µg/mL
